Assay results from the MegaScale stability set (Tsuboyama et al. 2023).

B1: r16_88_TrROS_Hall (parent)
chain: EVIELKIKFKTPEQREKLKEIAKKLNAEVVEEKDGEVIIRFKTPEQAERALKEAEKLGAEVEL

Variants of: B1
Assay: folding stability dG (cDNA display proteolysis); higher = more stable
Settings: PBS, room temperature

| Variant | folding stability dG [kcal/mol] |
| --- | --- |
| EVIELKIKFKTPEQREKLKEIAKKSNAEVVEEKDGEVIIRFKTPEQAERALKEAEKLGAEVEL [L25S] | 4.33 |
| EVIELKIKFKTPEQREKLKEIAKKGNAEVVEEKDGEVIIRFKTPEQAERALKEAEKLGAEVEL [L25G] | 4.23 |
| EVIELKIKFKTPEQREKLKEIAKKMNAEVVEEKDGEVIIRFKTPEQAERALKEAEKLGAEVEL [L25M] | 4.28 |
| EVIELKIKFKTPEQREKLKEIAKKANAEVVEEKDGEVIIRFKTPEQAERALKEAEKLGAEVEL [L25A] | 4.05 |
| EVIELKIKFKTPEQREKLKEIAKKRNAEVVEEKDGEVIIRFKTPEQAERALKEAEKLGAEVEL [L25R] | 4.09 |
| EVIELKIKFKTPEQREKLKEIAKKVNAEVVEEKDGEVIIRFKTPEQAERALKEAEKLGAEVEL [L25V] | 4.32 |
| EVIELKIKFKTPEQREKLKEIAKKCNAEVVEEKDGEVIIRFKTPEQAERALKEAEKLGAEVEL [L25C] | 4.35 |
| EVIELKIKFKTPEQREKLKEIAKKENAEVVEEKDGEVIIRFKTPEQAERALKEAEKLGAEVEL [L25E] | 4.25 |
| EVIELKIKFKTPEQREKLKEIAKKWNAEVVEEKDGEVIIRFKTPEQAERALKEAEKLGAEVEL [L25W] | 4.85 |
| EVIELKIKFKTPEQREKLKEIAKKFNAEVVEEKDGEVIIRFKTPEQAERALKEAEKLGAEVEL [L25F] | 4.63 |
| EVIELKIKFKTPEQREKLKEIAKKYNAEVVEEKDGEVIIRFKTPEQAERALKEAEKLGAEVEL [L25Y] | 4.91 |
| EVIELKIKFKTPEQREKLKEIAKKQNAEVVEEKDGEVIIRFKTPEQAERALKEAEKLGAEVEL [L25Q] | 4.42 |
| EVIELKIKFKTPEQREKLKEIAKKINAEVVEEKDGEVIIRFKTPEQAERALKEAEKLGAEVEL [L25I] | 4.46 |
| EVIELKIKFKTPEQREKLKEIAKKDNAEVVEEKDGEVIIRFKTPEQAERALKEAEKLGAEVEL [L25D] | 4.31 |
| EVIELKIKFKTPEQREKLKEIAKKKNAEVVEEKDGEVIIRFKTPEQAERALKEAEKLGAEVEL [L25K] | 3.82 |
| EVIELKIKFKTPEQREKLKEIAKKTNAEVVEEKDGEVIIRFKTPEQAERALKEAEKLGAEVEL [L25T] | 4.29 |
| EVIELKIKFKTPEQREKLKEIAKKPNAEVVEEKDGEVIIRFKTPEQAERALKEAEKLGAEVEL [L25P] | 3.67 |
| EVIELKIKFKTPEQREKLKEIAKKHNAEVVEEKDGEVIIRFKTPEQAERALKEAEKLGAEVEL [L25H] | 4.62 |
| EVIELKIKFKTPEQREKLKEIAKKNNAEVVEEKDGEVIIRFKTPEQAERALKEAEKLGAEVEL [L25N] | 4.13 |
| EVIELKIKFKTPEQREKLKEIAKKLNAAVVEEKDGEVIIRFKTPEQAERALKEAEKLGAEVEL [E28A] | 4.29 |
| EVIELKIKFKTPEQREKLKEIAKKLNACVVEEKDGEVIIRFKTPEQAERALKEAEKLGAEVEL [E28C] | 4.65 |
| EVIELKIKFKTPEQREKLKEIAKKLMAEVVEEKDGEVIIRFKTPEQAERALKEAEKLGAEVEL [N26M] | 4.53 |

| Variant | folding stability dG [kcal/mol] |
| --- | --- |
| EVIELKIKFKTPEQREKLKEIAKKLLAEVVEEKDGEVIIRFKTPEQAERALKEAEKLGAEVEL [N26L] | 4.16 |
| EVIELKIKFKTPEQREKLKEIAKKLYAEVVEEKDGEVIIRFKTPEQAERALKEAEKLGAEVEL [N26Y] | 4.31 |
| EVIELKIKFKTPEQREKLKEIAKKLGAEVVEEKDGEVIIRFKTPEQAERALKEAEKLGAEVEL [N26G] | 4.43 |
| EVIELKIKFKTPEQREKLKEIAKKLWAEVVEEKDGEVIIRFKTPEQAERALKEAEKLGAEVEL [N26W] | 4.36 |
| EVIELKIKFKTPEQREKLKEIAKKLEAEVVEEKDGEVIIRFKTPEQAERALKEAEKLGAEVEL [N26E] | 4.09 |
| EVIELKIKFKTPEQREKLKEIAKKLHAEVVEEKDGEVIIRFKTPEQAERALKEAEKLGAEVEL [N26H] | 4.24 |
| EVIELKIKFKTPEQREKLKEIAKKLTAEVVEEKDGEVIIRFKTPEQAERALKEAEKLGAEVEL [N26T] | 4.41 |
| EVIELKIKFKTPEQREKLKEIAKKLRAEVVEEKDGEVIIRFKTPEQAERALKEAEKLGAEVEL [N26R] | 4.42 |
| EVIELKIKFKTPEQREKLKEIAKKLKAEVVEEKDGEVIIRFKTPEQAERALKEAEKLGAEVEL [N26K] | 4.44 |
| EVIELKIKFKTPEQREKLKEIAKKLSAEVVEEKDGEVIIRFKTPEQAERALKEAEKLGAEVEL [N26S] | 4.45 |
| EVIELKIKFKTPEQREKLKEIAKKLAAEVVEEKDGEVIIRFKTPEQAERALKEAEKLGAEVEL [N26A] | 4.41 |
| EVIELKIKFKTPEQREKLKEIAKKLCAEVVEEKDGEVIIRFKTPEQAERALKEAEKLGAEVEL [N26C] | 4.33 |
| EVIELKIKFKTPEQREKLKEIAKKLIAEVVEEKDGEVIIRFKTPEQAERALKEAEKLGAEVEL [N26I] | 4.19 |
| EVIELKIKFKTPEQREKLKEIAKKLVAEVVEEKDGEVIIRFKTPEQAERALKEAEKLGAEVEL [N26V] | 4.35 |
| EVIELKIKFKTPEQREKLKEIAKKLPAEVVEEKDGEVIIRFKTPEQAERALKEAEKLGAEVEL [N26P] | 3.84 |
| EVIELKIKFKTPEQREKLKEIAKKLQAEVVEEKDGEVIIRFKTPEQAERALKEAEKLGAEVEL [N26Q] | 4.45 |
| EVIELKIKFKTPEQREKLKEIAKKLFAEVVEEKDGEVIIRFKTPEQAERALKEAEKLGAEVEL [N26F] | 4.24 |
| EVIELKIKFKTPEQREKLKEIAKKLDAEVVEEKDGEVIIRFKTPEQAERALKEAEKLGAEVEL [N26D] | 4.3 |
| EVIELKIKFKTPEQREKLKEIAKKLNVEVVEEKDGEVIIRFKTPEQAERALKEAEKLGAEVEL [A27V] | 4.24 |
| EVIELKIKFKTPEQREKLKEIAKKLNKEVVEEKDGEVIIRFKTPEQAERALKEAEKLGAEVEL [A27K] | 3.95 |
| EVIELKIKFKTPEQREKLKEIAKKLNQEVVEEKDGEVIIRFKTPEQAERALKEAEKLGAEVEL [A27Q] | 3.88 |
| EVIELKIKFKTPEQREKLKEIAKKLNREVVEEKDGEVIIRFKTPEQAERALKEAEKLGAEVEL [A27R] | 3.72 |

| Variant | folding stability dG [kcal/mol] |
| --- | --- |
| EVIELKIKFKTPEQREKLKEIAKKLNWEVVEEKDGEVIIRFKTPEQAERALKEAEKLGAEVEL [A27W] | 4.42 |
| EVIELKIKFKTPEQREKLKEIAKKLNMEVVEEKDGEVIIRFKTPEQAERALKEAEKLGAEVEL [A27M] | 4.42 |
| EVIELKIKFKTPEQREKLKEIAKKLNIEVVEEKDGEVIIRFKTPEQAERALKEAEKLGAEVEL [A27I] | 4.34 |
| EVIELKIKFKTPEQREKLKEIAKKLNEEVVEEKDGEVIIRFKTPEQAERALKEAEKLGAEVEL [A27E] | 3.84 |
| EVIELKIKFKTPEQREKLKEIAKKLNDEVVEEKDGEVIIRFKTPEQAERALKEAEKLGAEVEL [A27D] | 3.12 |
| EVIELKIKFKTPEQREKLKEIAKKLNSEVVEEKDGEVIIRFKTPEQAERALKEAEKLGAEVEL [A27S] | 4.31 |
| EVIELKIKFKTPEQREKLKEIAKKLNTEVVEEKDGEVIIRFKTPEQAERALKEAEKLGAEVEL [A27T] | 4.26 |
| EVIELKIKFKTPEQREKLKEIAKKLNGEVVEEKDGEVIIRFKTPEQAERALKEAEKLGAEVEL [A27G] | 4.37 |
| EVIELKIKFKTPEQREKLKEIAKKLNYEVVEEKDGEVIIRFKTPEQAERALKEAEKLGAEVEL [A27Y] | 4.25 |
| EVIELKIKFKTPEQREKLKEIAKKLNNEVVEEKDGEVIIRFKTPEQAERALKEAEKLGAEVEL [A27N] | 3.76 |
| EVIELKIKFKTPEQREKLKEIAKKLNPEVVEEKDGEVIIRFKTPEQAERALKEAEKLGAEVEL [A27P] | 4.01 |
| EVIELKIKFKTPEQREKLKEIAKKLNHEVVEEKDGEVIIRFKTPEQAERALKEAEKLGAEVEL [A27H] | 4.04 |
| EVIELKIKFKTPEQREKLKEIAKKLNFEVVEEKDGEVIIRFKTPEQAERALKEAEKLGAEVEL [A27F] | 4.4 |
| EVIELKIKFKTPEQREKLKEIAKKLNLEVVEEKDGEVIIRFKTPEQAERALKEAEKLGAEVEL [A27L] | 4.45 |
| EVIELKIKFKTPEQREKLKEIAKKLNCEVVEEKDGEVIIRFKTPEQAERALKEAEKLGAEVEL [A27C] | 4.25 |
| EVIELKIKFKTPEQREKLKEIAKLLNAEVVEEKDGEVIIRFKTPEQAERALKEAEKLGAEVEL [K24L] | 4.5 |
| EVIELKIKFKTPEQREKLKEIAKMLNAEVVEEKDGEVIIRFKTPEQAERALKEAEKLGAEVEL [K24M] | 4.4 |
| EVIELKIKFKTPEQREKLKEIAKYLNAEVVEEKDGEVIIRFKTPEQAERALKEAEKLGAEVEL [K24Y] | 4.84 |
| EVIELKIKFKTPEQREKLKEIAKILNAEVVEEKDGEVIIRFKTPEQAERALKEAEKLGAEVEL [K24I] | 4.49 |
| EVIELKIKFKTPEQREKLKEIAKFLNAEVVEEKDGEVIIRFKTPEQAERALKEAEKLGAEVEL [K24F] | 4.67 |
| EVIELKIKFKTPEQREKLKEIAKTLNAEVVEEKDGEVIIRFKTPEQAERALKEAEKLGAEVEL [K24T] | 4.48 |
| EVIELKIKFKTPEQREKLKEIAKDLNAEVVEEKDGEVIIRFKTPEQAERALKEAEKLGAEVEL [K24D] | 4.39 |

| Variant | folding stability dG [kcal/mol] |
| --- | --- |
| EVIELKIKFKTPEQREKLKEIAKCLNAEVVEEKDGEVIIRFKTPEQAERALKEAEKLGAEVEL [K24C] | 4.53 |
| EVIELKIKFKTPEQREKLKEIAKRLNAEVVEEKDGEVIIRFKTPEQAERALKEAEKLGAEVEL [K24R] | 4.38 |
| EVIELKIKFKTPEQREKLKEIAKVLNAEVVEEKDGEVIIRFKTPEQAERALKEAEKLGAEVEL [K24V] | 4.61 |
| EVIELKIKFKTPEQREKLKEIAKALNAEVVEEKDGEVIIRFKTPEQAERALKEAEKLGAEVEL [K24A] | 4.28 |
| EVIELKIKFKTPEQREKLKEIAKPLNAEVVEEKDGEVIIRFKTPEQAERALKEAEKLGAEVEL [K24P] | 3.96 |
| EVIELKIKFKTPEQREKLKEIAKGLNAEVVEEKDGEVIIRFKTPEQAERALKEAEKLGAEVEL [K24G] | 4.47 |
| EVIELKIKFKTPEQREKLKEIAKNLNAEVVEEKDGEVIIRFKTPEQAERALKEAEKLGAEVEL [K24N] | 4.46 |
| EVIELKIKFKTPEQREKLKEIAKELNAEVVEEKDGEVIIRFKTPEQAERALKEAEKLGAEVEL [K24E] | 4.43 |
| EVIELKIKFKTPEQREKLKEIAKHLNAEVVEEKDGEVIIRFKTPEQAERALKEAEKLGAEVEL [K24H] | 4.3 |
| EVIELKIKFKTPEQREKLKEIAKWLNAEVVEEKDGEVIIRFKTPEQAERALKEAEKLGAEVEL [K24W] | 4.77 |
| EVIELKIKFKTPEQREKLKEIAKQLNAEVVEEKDGEVIIRFKTPEQAERALKEAEKLGAEVEL [K24Q] | 4.56 |
| EVIELKIKFKTPEQREKLKEIAKSLNAEVVEEKDGEVIIRFKTPEQAERALKEAEKLGAEVEL [K24S] | 4.47 |
| EVIELKIKFKTPEQREKLKEIAWKLNAEVVEEKDGEVIIRFKTPEQAERALKEAEKLGAEVEL [K23W] | 4.8 |
| EVIELKIKFKTPEQREKLKEIARKLNAEVVEEKDGEVIIRFKTPEQAERALKEAEKLGAEVEL [K23R] | 4.48 |
| EVIELKIKFKTPEQREKLKEIAVKLNAEVVEEKDGEVIIRFKTPEQAERALKEAEKLGAEVEL [K23V] | 4.62 |
| EVIELKIKFKTPEQREKLKEIATKLNAEVVEEKDGEVIIRFKTPEQAERALKEAEKLGAEVEL [K23T] | 4.63 |
| EVIELKIKFKTPEQREKLKEIAPKLNAEVVEEKDGEVIIRFKTPEQAERALKEAEKLGAEVEL [K23P] | 3.93 |
| EVIELKIKFKTPEQREKLKEIASKLNAEVVEEKDGEVIIRFKTPEQAERALKEAEKLGAEVEL [K23S] | 4.55 |
| EVIELKIKFKTPEQREKLKEIAQKLNAEVVEEKDGEVIIRFKTPEQAERALKEAEKLGAEVEL [K23Q] | 4.27 |
